Assay results published in the array DNA melting data of Ke et al..

Assay: melting temperature; melt of duplexes
Conditions: sodium 0.0675 M; strand 1 µM

| Substance | Tm [°C] |
| --- | --- |
| CGACGTGCTAAATGTGCTG+CAGCACATGGCGCACGTCG ((((((((...((((((((+))))))))...)))))))) | 51.2 |
| CGACGTGCTAAATGTGCTG+CAGCACATGGTGCACGTCG ((((((((...((((((((+))))))))...)))))))) | 49.9 |
| CGACGTGCTAAATGTGCTG+CAGCACATGTAGCACGTCG ((((((((((.((((((((+)))))))).)))))))))) | 55.7 |
| CGACGTGCTAAATGTGCTG+CAGCACATGTTGCACGTCG ((((((((.(.((((((((+)))))))).).)))))))) | 52.6 |
| CGACGTGCTAAATGTGCTG+CAGCACATTAGGCACGTCG ((((((((..(((((((((+)))))))))..)))))))) | 53.8 |
| CGACGTGCTAAATGTGCTG+CAGCACATTATGCACGTCG ((((((((..(((((((((+)))))))))..)))))))) | 53.1 |
| CGACGTGCTAAATGTGCTG+CAGCACATTGTGCACGTCG ((((((((..(((((((((+)))))))))..)))))))) | 50.7 |
| CGACGTGCTAAATGTGCTG+CAGCACATTTGGCACGTCG ((((((((.((((((((((+)))))))))).)))))))) | 57.9 |
| CGACGTGCTACATGTGCTG+CAGCACATAACGCACGTCG ((((((((...((((((((+))))))))...)))))))) | 49 |
| CGACGTGCTACATGTGCTG+CAGCACATACCGCACGTCG ((((((((...((((((((+))))))))...)))))))) | 47.5 |
| CGACGTGCTACATGTGCTG+CAGCACATACTGCACGTCG ((((((((...((((((((+))))))))...)))))))) | 49.3 |
| CGACGTGCTACATGTGCTG+CAGCACATAGAGCACGTCG (((((((((..((((((((+))))))))..))))))))) | 52.5 |
| CGACGTGCTACATGTGCTG+CAGCACATATGGCACGTCG ((((((((.(.((((((((+)))))))).).)))))))) | 51.3 |
| CGACGTGCTACATGTGCTG+CAGCACATCCCGCACGTCG ((((((((...((((((((+))))))))...)))))))) | 47.4 |
| CGACGTGCTACATGTGCTG+CAGCACATCCTGCACGTCG ((((((((...((((((((+))))))))...)))))))) | 48.3 |
| CGACGTGCTACATGTGCTG+CAGCACATCGAGCACGTCG (((((((((..((((((((+))))))))..))))))))) | 51.6 |
| CGACGTGCTACATGTGCTG+CAGCACATCGGGCACGTCG ((((((((...((((((((+))))))))...)))))))) | 49.5 |
| CGACGTGCTACATGTGCTG+CAGCACATCGTGCACGTCG ((((((((...((((((((+))))))))...)))))))) | 46.6 |
| CGACGTGCTACATGTGCTG+CAGCACATCTTGCACGTCG ((((((((.(.((((((((+)))))))).).)))))))) | 49.3 |
| CGACGTGCTACATGTGCTG+CAGCACATGAAGCACGTCG (((((((((.(((((((((+))))))))).))))))))) | 58.3 |
| CGACGTGCTACATGTGCTG+CAGCACATGCAGCACGTCG (((((((((.(((((((((+))))))))).))))))))) | 58.1 |
| CGACGTGCTACATGTGCTG+CAGCACATGCGGCACGTCG ((((((((..(((((((((+)))))))))..)))))))) | 54.1 |
| CGACGTGCTACATGTGCTG+CAGCACATGCTGCACGTCG ((((((((..(((((((((+)))))))))..)))))))) | 52.8 |
| CGACGTGCTACATGTGCTG+CAGCACATGTAGCACGTCG (((((((((((((((((((+))))))))))))))))))) | 63.6 |

| Substance | Tm [°C] |
| --- | --- |
| CGACGTGCTACATGTGCTG+CAGCACATTACGCACGTCG ((((((((...((((((((+))))))))...)))))))) | 48.7 |
| CGACGTGCTACATGTGCTG+CAGCACATTGAGCACGTCG (((((((((..((((((((+))))))))..))))))))) | 52.8 |
| CGACGTGCTACATGTGCTG+CAGCACATTGTGCACGTCG ((((((((...((((((((+))))))))...)))))))) | 48.7 |
| CGACGTGCTACATGTGCTG+CAGCACATTTGGCACGTCG ((((((((.(.((((((((+)))))))).).)))))))) | 51.1 |
| CGACGTGCTAGATGTGCTG+CAGCACATAACGCACGTCG ((((((((...((((((((+))))))))...)))))))) | 49.9 |
| CGACGTGCTAGATGTGCTG+CAGCACATAAGGCACGTCG ((((((((...((((((((+))))))))...)))))))) | 51.4 |
| CGACGTGCTAGATGTGCTG+CAGCACATAATGCACGTCG ((((((((...((((((((+))))))))...)))))))) | 50.6 |
| CGACGTGCTAGATGTGCTG+CAGCACATAGTGCACGTCG ((((((((...((((((((+))))))))...)))))))) | 46.1 |
| CGACGTGCTAGATGTGCTG+CAGCACATATAGCACGTCG ((((((((((.((((((((+)))))))).)))))))))) | 57.6 |
| CGACGTGCTAGATGTGCTG+CAGCACATATTGCACGTCG ((((((((.(.((((((((+)))))))).).)))))))) | 52.5 |
| CGACGTGCTAGATGTGCTG+CAGCACATCACGCACGTCG ((((((((..(((((((((+)))))))))..)))))))) | 54.3 |
| CGACGTGCTAGATGTGCTG+CAGCACATCCAGCACGTCG (((((((((.(((((((((+))))))))).))))))))) | 56.1 |
| CGACGTGCTAGATGTGCTG+CAGCACATCCGGCACGTCG ((((((((..(((((((((+)))))))))..)))))))) | 55.4 |
| CGACGTGCTAGATGTGCTG+CAGCACATCCTGCACGTCG ((((((((..(((((((((+)))))))))..)))))))) | 54.7 |
| CGACGTGCTAGATGTGCTG+CAGCACATCGGGCACGTCG ((((((((..(((((((((+)))))))))..)))))))) | 57 |
| CGACGTGCTAGATGTGCTG+CAGCACATCTAGCACGTCG (((((((((((((((((((+))))))))))))))))))) | 63.6 |
| CGACGTGCTAGATGTGCTG+CAGCACATCTTGCACGTCG ((((((((.((((((((((+)))))))))).)))))))) | 58.7 |
| CGACGTGCTAGATGTGCTG+CAGCACATGCAGCACGTCG (((((((((..((((((((+))))))))..))))))))) | 53 |
| CGACGTGCTAGATGTGCTG+CAGCACATGCCGCACGTCG ((((((((...((((((((+))))))))...)))))))) | 49.2 |
| CGACGTGCTAGATGTGCTG+CAGCACATGCGGCACGTCG ((((((((...((((((((+))))))))...)))))))) | 50.3 |
| CGACGTGCTAGATGTGCTG+CAGCACATGCTGCACGTCG ((((((((...((((((((+))))))))...)))))))) | 49.3 |
| CGACGTGCTAGATGTGCTG+CAGCACATGGGGCACGTCG ((((((((...((((((((+))))))))...)))))))) | 51 |
| CGACGTGCTAGATGTGCTG+CAGCACATGTAGCACGTCG ((((((((((.((((((((+)))))))).)))))))))) | 56.8 |
| CGACGTGCTAGATGTGCTG+CAGCACATGTTGCACGTCG ((((((((.(.((((((((+)))))))).).)))))))) | 52.2 |

| Substance | Tm [°C] |
| --- | --- |
| CGACGTGCTAGATGTGCTG+CAGCACATTACGCACGTCG ((((((((...((((((((+))))))))...)))))))) | 50.1 |
| CGACGTGCTAGATGTGCTG+CAGCACATTCAGCACGTCG (((((((((..((((((((+))))))))..))))))))) | 52.8 |
| CGACGTGCTAGATGTGCTG+CAGCACATTCGGCACGTCG ((((((((...((((((((+))))))))...)))))))) | 52.1 |
| CGACGTGCTAGATGTGCTG+CAGCACATTCTGCACGTCG ((((((((...((((((((+))))))))...)))))))) | 52.2 |
| CGACGTGCTATATGTGCTG+CAGCACATAAGGCACGTCG ((((((((..(((((((((+)))))))))..)))))))) | 52.5 |
| CGACGTGCTATATGTGCTG+CAGCACATACGGCACGTCG ((((((((..(((((((((+)))))))))..)))))))) | 50.7 |
| CGACGTGCTATATGTGCTG+CAGCACATATAGCACGTCG (((((((((((((((((((+))))))))))))))))))) | 61.3 |
| CGACGTGCTATATGTGCTG+CAGCACATATCGCACGTCG ((((((((.((((((((((+)))))))))).)))))))) | 54.9 |
| CGACGTGCTATATGTGCTG+CAGCACATATTGCACGTCG ((((((((.((((((((((+)))))))))).)))))))) | 56 |
| CGACGTGCTATATGTGCTG+CAGCACATCATGCACGTCG ((((((((...((((((((+))))))))...)))))))) | 50.2 |
| CGACGTGCTATATGTGCTG+CAGCACATCCGGCACGTCG ((((((((...((((((((+))))))))...)))))))) | 49 |
| CGACGTGCTATATGTGCTG+CAGCACATCCTGCACGTCG ((((((((...((((((((+))))))))...)))))))) | 48.3 |
| CGACGTGCTATATGTGCTG+CAGCACATCGCGCACGTCG ((((((((...((((((((+))))))))...)))))))) | 46.6 |
| CGACGTGCTATATGTGCTG+CAGCACATGAGGCACGTCG ((((((((...((((((((+))))))))...)))))))) | 52 |
| CGACGTGCTATATGTGCTG+CAGCACATGCCGCACGTCG ((((((((...((((((((+))))))))...)))))))) | 48.9 |
| CGACGTGCTATATGTGCTG+CAGCACATGCGGCACGTCG ((((((((...((((((((+))))))))...)))))))) | 49.4 |
| CGACGTGCTATATGTGCTG+CAGCACATGGCGCACGTCG ((((((((...((((((((+))))))))...)))))))) | 48.5 |
| CGACGTGCTATATGTGCTG+CAGCACATGTCGCACGTCG ((((((((.(.((((((((+)))))))).).)))))))) | 51.4 |
| CGACGTGCTATATGTGCTG+CAGCACATTACGCACGTCG ((((((((...((((((((+))))))))...)))))))) | 49.3 |
| CGACGTGCTATATGTGCTG+CAGCACATTAGGCACGTCG ((((((((...((((((((+))))))))...)))))))) | 51.4 |
| CGACGTGCTATATGTGCTG+CAGCACATTCAGCACGTCG (((((((((..((((((((+))))))))..))))))))) | 51 |
| CGACGTGCTATATGTGCTG+CAGCACATTTAGCACGTCG ((((((((((.((((((((+)))))))).)))))))))) | 55.3 |
| CGACGTGCTCAATGTGCTG+CAGCACATAAAGCACGTCG (((((((((..((((((((+))))))))..))))))))) | 52.1 |
| CGACGTGCTCAATGTGCTG+CAGCACATACAGCACGTCG (((((((((..((((((((+))))))))..))))))))) | 50.7 |
